# From patent publication US20190345534
# Test system: GzmB peptide substrate AIEFDSGc on PEG-coated iron oxide nanoparticles (GzmB-sensing synthetic biomarker)
# Chain of Factor D (Sigma) (P00746 26-253): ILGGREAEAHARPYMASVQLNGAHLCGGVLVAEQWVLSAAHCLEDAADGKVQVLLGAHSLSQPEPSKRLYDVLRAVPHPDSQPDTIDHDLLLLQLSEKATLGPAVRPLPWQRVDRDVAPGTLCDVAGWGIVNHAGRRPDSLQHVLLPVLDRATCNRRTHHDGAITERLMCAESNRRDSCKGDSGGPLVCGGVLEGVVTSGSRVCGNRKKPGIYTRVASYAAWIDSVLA
# Chain of MASP2 (Biomatik) (O00187 16-686): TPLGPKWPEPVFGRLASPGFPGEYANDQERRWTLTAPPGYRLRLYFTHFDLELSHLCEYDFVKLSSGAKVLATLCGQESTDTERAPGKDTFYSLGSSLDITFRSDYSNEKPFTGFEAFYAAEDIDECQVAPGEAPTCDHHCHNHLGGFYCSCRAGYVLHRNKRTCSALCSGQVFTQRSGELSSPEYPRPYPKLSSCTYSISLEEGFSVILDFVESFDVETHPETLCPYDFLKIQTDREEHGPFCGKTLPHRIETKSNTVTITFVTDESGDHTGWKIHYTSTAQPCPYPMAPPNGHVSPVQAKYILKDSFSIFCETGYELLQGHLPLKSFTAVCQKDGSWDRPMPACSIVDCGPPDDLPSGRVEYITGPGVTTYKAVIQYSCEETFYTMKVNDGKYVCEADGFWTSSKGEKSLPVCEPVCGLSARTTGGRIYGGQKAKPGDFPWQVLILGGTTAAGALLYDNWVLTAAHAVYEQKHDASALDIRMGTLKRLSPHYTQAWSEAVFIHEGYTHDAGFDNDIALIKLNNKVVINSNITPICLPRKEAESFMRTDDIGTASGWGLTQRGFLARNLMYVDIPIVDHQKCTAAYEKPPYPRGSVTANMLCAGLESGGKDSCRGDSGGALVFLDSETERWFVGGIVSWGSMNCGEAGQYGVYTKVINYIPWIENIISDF
# Chain of Factor I (Sigma) (P05156 19-583): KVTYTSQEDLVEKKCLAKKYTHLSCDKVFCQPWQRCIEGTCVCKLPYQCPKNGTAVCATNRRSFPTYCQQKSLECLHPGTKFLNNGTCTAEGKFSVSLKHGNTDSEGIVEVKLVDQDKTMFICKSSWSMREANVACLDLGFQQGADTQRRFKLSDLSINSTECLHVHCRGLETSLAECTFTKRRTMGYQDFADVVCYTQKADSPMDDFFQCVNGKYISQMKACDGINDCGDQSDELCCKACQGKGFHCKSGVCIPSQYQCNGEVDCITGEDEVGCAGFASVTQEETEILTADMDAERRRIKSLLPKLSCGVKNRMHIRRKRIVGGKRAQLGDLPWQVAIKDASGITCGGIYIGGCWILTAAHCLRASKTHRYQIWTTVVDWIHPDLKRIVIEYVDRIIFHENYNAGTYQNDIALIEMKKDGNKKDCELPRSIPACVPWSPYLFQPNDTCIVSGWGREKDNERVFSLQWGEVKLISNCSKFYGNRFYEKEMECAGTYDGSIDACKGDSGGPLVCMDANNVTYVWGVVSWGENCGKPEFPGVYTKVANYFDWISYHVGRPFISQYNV
row,Substance,fluorescent intensity (in vitro protease cleavage assay)
1,mouse thrombin (HaemTech),Increases in fluorescent intensity were observed only in samples containing recombinant GzmB
2,human thrombin (HaemTech),Increases in fluorescent intensity were observed only in samples containing recombinant GzmB
3,Factor I (Sigma),Increases in fluorescent intensity were observed only in samples containing recombinant GzmB
4,MASP2 (Biomatik),Increases in fluorescent intensity were observed only in samples containing recombinant GzmB
5,Factor D (Sigma),Increases in fluorescent intensity were observed only in samples containing recombinant GzmB
